molecular target: Met receptor on cells (A549, MDA-MB-435, BxPC3) (UniProt P08581); experiment: cell-based or functional assay
Sequence of UniProt P08581 (P08581 25-1390 limits assumed): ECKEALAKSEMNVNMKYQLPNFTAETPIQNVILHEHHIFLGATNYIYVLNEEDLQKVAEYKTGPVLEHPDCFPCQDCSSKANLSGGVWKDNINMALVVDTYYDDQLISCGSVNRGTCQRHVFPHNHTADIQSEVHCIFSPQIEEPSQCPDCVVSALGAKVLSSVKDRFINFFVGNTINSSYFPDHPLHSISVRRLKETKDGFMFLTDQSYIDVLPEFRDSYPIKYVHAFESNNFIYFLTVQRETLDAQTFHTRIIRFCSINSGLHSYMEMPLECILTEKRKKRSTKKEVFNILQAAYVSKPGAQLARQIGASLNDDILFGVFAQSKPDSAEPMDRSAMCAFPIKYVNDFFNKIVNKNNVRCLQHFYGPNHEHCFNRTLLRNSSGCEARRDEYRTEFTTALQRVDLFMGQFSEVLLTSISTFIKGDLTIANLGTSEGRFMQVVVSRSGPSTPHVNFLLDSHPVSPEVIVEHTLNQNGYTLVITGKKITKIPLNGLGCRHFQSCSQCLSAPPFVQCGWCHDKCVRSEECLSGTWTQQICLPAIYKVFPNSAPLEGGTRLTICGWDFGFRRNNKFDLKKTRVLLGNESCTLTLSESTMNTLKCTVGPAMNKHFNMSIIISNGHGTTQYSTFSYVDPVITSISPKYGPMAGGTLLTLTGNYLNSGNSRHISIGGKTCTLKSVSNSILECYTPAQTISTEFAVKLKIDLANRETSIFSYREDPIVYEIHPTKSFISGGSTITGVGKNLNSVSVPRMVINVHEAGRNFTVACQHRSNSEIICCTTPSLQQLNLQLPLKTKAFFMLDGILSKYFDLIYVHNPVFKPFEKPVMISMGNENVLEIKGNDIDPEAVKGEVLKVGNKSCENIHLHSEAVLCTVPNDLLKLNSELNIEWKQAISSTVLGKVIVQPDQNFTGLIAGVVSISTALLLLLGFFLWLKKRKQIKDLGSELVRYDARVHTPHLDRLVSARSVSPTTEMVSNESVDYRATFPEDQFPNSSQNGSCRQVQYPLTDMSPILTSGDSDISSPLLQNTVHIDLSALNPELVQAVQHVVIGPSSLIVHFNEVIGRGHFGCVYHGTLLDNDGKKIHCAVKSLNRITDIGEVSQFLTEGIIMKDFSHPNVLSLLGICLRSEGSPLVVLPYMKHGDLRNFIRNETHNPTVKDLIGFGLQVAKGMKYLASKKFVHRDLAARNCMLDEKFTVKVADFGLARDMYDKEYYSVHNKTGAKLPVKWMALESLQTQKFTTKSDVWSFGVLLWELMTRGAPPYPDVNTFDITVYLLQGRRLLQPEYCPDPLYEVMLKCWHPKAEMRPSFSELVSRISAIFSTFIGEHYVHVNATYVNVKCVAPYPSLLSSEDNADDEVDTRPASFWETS

**Q.** How did the migration of MDA-MB435 cells (transwell, 1 nM), percent of wildtype HGF (% of wildtype activity) turn out when “HGF G621A (two-chain full length HGF mutant) (from UniProt P14210 32-494; P14210 495-728) (ligand)” was run?
**A.** The migration of MDA-MB435 cells (transwell, 1 nM), percent of wildtype HGF (% of wildtype activity) was 60 to 80.

**Q.** How did the migration of MDA-MB435 cells (transwell, 1 nM), percent of wildtype HGF (% of wildtype activity) turn out when “HGF I699A (two-chain full length HGF mutant) (from UniProt P14210 32-494; P14210 495-728) (ligand)” was run?
**A.** The migration of MDA-MB435 cells (transwell, 1 nM), percent of wildtype HGF (% of wildtype activity) was 60 to 80.

**Q.** Which migration of MDA-MB435 cells (transwell, 1 nM), percent of wildtype HGF (% of wildtype activity) does the source give for “HGF N701A (two-chain full length HGF mutant) (from UniProt P14210 32-494; P14210 495-728) (ligand)” here?
**A.** The migration of MDA-MB435 cells (transwell, 1 nM), percent of wildtype HGF (% of wildtype activity) was 60 to 80.

**Q.** For “HGF P537A (two-chain full length HGF mutant) (from UniProt P14210 32-494; P14210 495-728) (ligand)”, which migration of MDA-MB435 cells (transwell, 1 nM), percent of wildtype HGF (% of wildtype activity) is on record?
**A.** The migration of MDA-MB435 cells (transwell, 1 nM), percent of wildtype HGF (% of wildtype activity) was 60 to 80.

**Q.** “HGF R514A (two-chain full length HGF mutant) (from UniProt P14210 32-494; P14210 495-728) (ligand)” was tested. Which migration of MDA-MB435 cells (transwell, 1 nM), percent of wildtype HGF (% of wildtype activity) did it give?
**A.** The migration of MDA-MB435 cells (transwell, 1 nM), percent of wildtype HGF (% of wildtype activity) was 60 to 80.

**Q.** How did the migration of MDA-MB435 cells (transwell, 1 nM), percent of wildtype HGF (% of wildtype activity) turn out when “HGF T620A (two-chain full length HGF mutant) (from UniProt P14210 32-494; P14210 495-728) (ligand)” was run?
**A.** The migration of MDA-MB435 cells (transwell, 1 nM), percent of wildtype HGF (% of wildtype activity) was 60 to 80.

**Q.** “HGF Y619A (two-chain full length HGF mutant) (from UniProt P14210 32-494; P14210 495-728) (ligand)” was tested. Which migration of MDA-MB435 cells (transwell, 1 nM), percent of wildtype HGF (% of wildtype activity) did it give?
**A.** The migration of MDA-MB435 cells (transwell, 1 nM), percent of wildtype HGF (% of wildtype activity) was 60 to 80.

Reference: US20050037431A1
